# US6759384 (AVENTIS PHARMACEUTICALS, dated 2004)
# Starred links: 1 amine or outer side, 2 acyl side, 3 side chain; linkers in the order of their positions; H or OH if unused. Positions of bridges follow the written chain, without caps; N, C: chain ends. Non-standard residues stand in square brackets, D forms with d. Primed or numbered codes have the meaning given here. No end group written: not given here. *: point of attachment. Dab(Nγ-C3H7N)″ = 2,4-diaminobutyric acid with dimethylamidinium (N,N-dimethylformamidinium) on gamma-N, C[N+](C)=CNCC[C@H](N[*:1])C(=O)[*:2]; Dab(Nγ-C3H7N) = Dab bearing Nγ-dimethylamidinium (C3H7N), C[N+](C)=CNCC[C@H](N[*:1])C(=O)[*:2]; (iBu)Tyr = N-isobutyl-L-tyrosine, CC(C)CN([C@@H](Cc1ccc(O[*:3])cc1)C(=O)[*:2])[*:1]; Tyr(Me)″ = O-methyl-tyrosine (source: Y(Me)), COc1ccc(C[C@H](N[*:1])C(=O)[*:2])cc1; Thr(Me) = O-methyl-threonine (source: T(Me)), CO[C@H](C)[C@H](N[*:1])C(=O)[*:2]; Cys(Me) = S-methylcysteine (source: C(Me)), CSC[C@H](N[*:1])C(=O)[*:2]; Pen(Me) = S-methyl-penicillamine, CSC(C)(C)[C@H](N[*:1])C(=O)[*:2]; Tyr(Me) = O-methyltyrosine, COc1ccc(C[C@H](N[*:1])C(=O)[*:2])cc1; Orn(Nδ-C3H7N) = ornithine with dimethylamidinium on delta-N; Phe(4-NO2) = N[C@@H](Cc1ccc([N+](=O)[O-])cc1)C(=O)O; Phe(4-NH2) = Nc1ccc(C[C@H](N)C(=O)O)cc1; 2Nal = N[C@@H](Cc1ccc2ccccc2c1)C(=O)O; NMeY = CN[C@@H](Cc1ccc(O)cc1)C(=O)O; hArg = N=C(N)NCCCC[C@H](N)C(=O)O; Cha = N[C@@H](CC1CCCCC1)C(=O)O; Agb = N=C(N)NCC[C@H](N)C(=O)O; Chg = N[C@H](C(=O)O)C1CCCCC1; Phg = N[C@H](C(=O)O)c1ccccc1; Pth = not defined here; pal = not defined here; Tfa = O=C(C(F)(F)F)*; Isobutyl = CC(C)C*; βAla = NCCC(=O)O; tBu = CC(C)(C)*
# B1: Ac-Y-I-hR-L-A-NH2 (peptide)
# peptide: Ac-YI[hArg]LA-NH2
# SMILES: CC[C@H](C)[C@H](NC(=O)[C@H](Cc1ccc(O)cc1)NC(C)=O)C(=O)N[C@@H](CCCCNC(=N)N)C(=O)N[C@@H](CC(C)C)C(=O)N[C@@H](C)C(N)=O
# B2: Ac-Y-I-nR-L-A-NH2 (peptide)
# peptide: Ac-YI[Agb]LA-NH2
# SMILES: CC[C@H](C)[C@H](NC(=O)[C@H](Cc1ccc(O)cc1)NC(C)=O)C(=O)N[C@@H](CCNC(=N)N)C(=O)N[C@@H](CC(C)C)C(=O)N[C@@H](C)C(N)=O
# B3: y-I-(nR)-L-A-NH2 (peptide)
# peptide: [dY]I[Agb]LA-NH2
# modifications: N-terminus assumed
# SMILES: CC[C@H](C)[C@H](NC(=O)[C@H](N)Cc1ccc(O)cc1)C(=O)N[C@@H](CCNC(=N)N)C(=O)N[C@@H](CC(C)C)C(=O)N[C@@H](C)C(N)=O
# B4: Ac-Y-I-Dab(N^γC3H7N)-L-A-NH2 (peptide)
# peptide: Ac-YI[Dab(Nγ-C3H7N)]LA-NH2
# SMILES: CC[C@H](C)[C@H](NC(=O)[C@H](Cc1ccc(O)cc1)NC(C)=O)C(=O)N[C@@H](CCNC=[N+](C)C)C(=O)N[C@@H](CC(C)C)C(=O)N[C@@H](C)C(N)=O
# B5: Ac-βAla-Y-I-R-L-G-NH2 (peptide)
# peptide: Ac-[βAla]YIRLG-NH2
# SMILES: CC[C@H](C)[C@H](NC(=O)[C@H](Cc1ccc(O)cc1)NC(=O)CCNC(C)=O)C(=O)N[C@@H](CCCNC(=N)N)C(=O)N[C@@H](CC(C)C)C(=O)NCC(N)=O
# B6: Nal(2)-I-R-C(Me)-P-NH2 (peptide)
# peptide: [2Nal]IR[Cys(Me)]P-NH2
# modifications: N-terminus assumed
# SMILES: CC[C@H](C)[C@H](NC(=O)[C@@H](N)Cc1ccc2ccccc2c1)C(=O)N[C@@H](CCCNC(=N)N)C(=O)N[C@@H](CSC)C(=O)N1CCC[C@H]1C(N)=O
# B7: Ac-Y(Me)-I-R-L-A-NH2 (peptide)
# peptide: Ac-[Tyr(Me)″]IRLA-NH2
# SMILES: CC[C@H](C)[C@H](NC(=O)[C@H](Cc1ccc(OC)cc1)NC(C)=O)C(=O)N[C@@H](CCCNC(=N)N)C(=O)N[C@@H](CC(C)C)C(=O)N[C@@H](C)C(N)=O
# B8: F(pNH2)-I-R-L-A-NH2 (peptide)
# peptide: [Phe(4-NH2)]IRLA-NH2
# modifications: N-terminus assumed
# SMILES: CC[C@H](C)[C@H](NC(=O)[C@@H](N)Cc1ccc(N)cc1)C(=O)N[C@@H](CCCNC(=N)N)C(=O)N[C@@H](CC(C)C)C(=O)N[C@@H](C)C(N)=O
# B9: F(pNO2)-I-R-L-A-NH2 (peptide)
# peptide: [Phe(4-NO2)]IRLA-NH2
# modifications: N-terminus assumed
# SMILES: CC[C@H](C)[C@H](NC(=O)[C@@H](N)Cc1ccc([N+](=O)[O-])cc1)C(=O)N[C@@H](CCCNC(=N)N)C(=O)N[C@@H](CC(C)C)C(=O)N[C@@H](C)C(N)=O
# B10: Ac-(Me)Y-I-R-L-A-NH2 (peptide)
# peptide: Ac-[NMeY]IRLA-NH2
# SMILES: CC[C@H](C)[C@H](NC(=O)[C@H](Cc1ccc(O)cc1)N(C)C(C)=O)C(=O)N[C@@H](CCCNC(=N)N)C(=O)N[C@@H](CC(C)C)C(=O)N[C@@H](C)C(N)=O
# B11: Tfa-(Me)Y-I-R-L-A-NH2 (peptide)
# peptide: Tfa-[NMeY]IRLA-NH2
# SMILES: CC[C@H](C)[C@H](NC(=O)[C@H](Cc1ccc(O)cc1)N(C)C(=O)C(F)(F)F)C(=O)N[C@@H](CCCNC(=N)N)C(=O)N[C@@H](CC(C)C)C(=O)N[C@@H](C)C(N)=O
# B12: Tyr(Me)-I-R-L-A-NH2 (peptide)
# peptide: [Tyr(Me)]IRLA-NH2
# modifications: N-terminus assumed
# SMILES: CC[C@H](C)[C@H](NC(=O)[C@@H](N)Cc1ccc(OC)cc1)C(=O)N[C@@H](CCCNC(=N)N)C(=O)N[C@@H](CC(C)C)C(=O)N[C@@H](C)C(N)=O
# B13: pal-I-R-C(SBut)-P-NH2 (peptide)
# peptide: [pal]IRC(tBu)P-NH2
# modifications: reading uncertain; also: pyridylalanine ring position not given here, printed as pal-I-R-C(SBut)-P-NH2
# B14: pal-C(SBut)-R-L-P-NH2 (peptide)
# peptide: [pal]C(tBu)RLP-NH2
# modifications: reading uncertain; also: pyridylalanine ring position not given here, printed as pal-C(SBut)-R—L—P—NH2
# B15: Ac-E-Y-I-R-L-K-NH2** (peptide)
# peptide: Ac-EYIRLK-NH2
# modifications: lactam 1-6
# SMILES: CC[C@H](C)[C@@H]1NC(=O)[C@H](Cc2ccc(O)cc2)NC(=O)[C@@H](NC(C)=O)CCC(=O)NCCCC[C@@H](C(N)=O)NC(=O)[C@H](CC(C)C)NC(=O)[C@H](CCCNC(=N)N)NC1=O
# notes: underlining that marks the cyclized portion is lost in the text
# Biological target: human factor Xa (Enzyme Research Laboratories, Inc.) (human, UniProt P00742 41-179; P00742 235-488, limits assumed)
# Sequence (P00742 41-179 limits assumed, chain 1 of 2): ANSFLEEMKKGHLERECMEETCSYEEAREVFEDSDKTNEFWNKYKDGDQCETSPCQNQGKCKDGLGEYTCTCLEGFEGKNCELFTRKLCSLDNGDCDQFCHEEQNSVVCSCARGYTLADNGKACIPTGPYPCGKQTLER
# Sequence (P00742 235-488 limits assumed, chain 2 of 2): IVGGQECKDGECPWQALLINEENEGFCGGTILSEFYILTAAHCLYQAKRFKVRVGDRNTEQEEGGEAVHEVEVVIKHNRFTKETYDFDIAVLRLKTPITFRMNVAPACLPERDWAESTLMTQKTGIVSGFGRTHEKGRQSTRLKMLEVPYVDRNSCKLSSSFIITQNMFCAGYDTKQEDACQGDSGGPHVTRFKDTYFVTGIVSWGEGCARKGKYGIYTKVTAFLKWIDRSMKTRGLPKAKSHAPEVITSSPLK
# Test: chromogenic FXa inhibition
# Protocol: TBS-P buffer (50 mM Tris-Cl, pH 7.8, 200 mM NaCl, 0.05% (w/v) PEG-8000, 0.02% (w/v) NaN_3) was used for this assay. The IC$50$ was determined by combining in appropriate wells of a Costar half-area microtiter plate 25 μl human factor Xa (Enzyme Research Laboratories, Inc.; South Bend Ind.) in TBS-P; 40 μl 10% (v/v) DMSO in TBS-P (uninhibited control) or various concentrations of a peptide to be tested diluted in 10% (v/v) DMSO in TBS-P; and substrate S-2765 (Nα-benzyloxycarbonyl-D-Arg-Gly-L-Arg-p-nitroanilide; Kabi Pharmacia, Inc.; Franklin Ohio) in TBS-P.
# The assays were performed by pre-incubating the peptide inhibitor plus enzyme for 10 min, then the assay was initiated by adding substrate to obtain a final volume of 100 μl. The initial velocity of chromogenic substrate hydrolysis was measured by the change in absorbance at 405 nm using a Bio-tek Instruments kinetic plate reader (Ceres UV900HDi) at 25° C. during the linear portion of the time course (usually 1–5 min after addition of substrate). The concentration of inhibitor that caused a 50% decrease in the rate of substrate hydrolysis was predicted by linear regression after plotting the relative rates of hydrolysis (compared to the uninhibited control) versus the log of the peptide concentration. The enzyme concentration was 0.5 nM and substrate concentration was 140 μM.
row,Binder,Ki [µM]
1,Ac-[(iBu)Tyr]I[Dab(Nγ-C3H7N)″]LP-NH2 [Ac-(iBu)Y-I-Dab(N^γ-C3H7N)-L-P-NH2],< 100
2,B1,< 100
3,B2,< 100
4,B3,< 100
5,B4,< 100
6,Ac-[(iBu)Tyr]I[Orn(Nδ-C3H7N)]LP-NH2 [Ac-(iBu)Y-I-Orn(N^δ-C3H7N)-L-P-NH2],< 100
7,XIRLP (N-term Ac; N-(trans-CH3-CH═C(CH3)-CH2) on Y1; C-term NH2) [Ac-(trans-CH3-CH═C(CH3)-CH2)Y-I-R-L-P-NH2],< 100
8,"XIRLP (N-term Ac; Y1=Tyr(3,5-NO2); C-term NH2) [Ac-Tyr(3,5-NO2)-I-R-L-P-NH2]",< 100
9,Ac-[NMeY][Chg]RLP-NH2 [Ac-(Me)Y-Chg-R-L-P-NH2],< 100
10,Ac-Y[Thr(Me)]RLP-NH2 [Ac-Y-T(Me)-R-L-P-NH2],< 100
11,Ac-[(iBu)Tyr][Chg]RLP-NH2 [Ac-(iBu)Y-Chg-R-L-P-NH2],< 100
12,Ac-Y[Phg]RLP-NH2 [Ac-Y-Pgl-R-L-P-NH2],< 100
13,Ac-Y[Cha]RLP-NH2 [Ac-Y-Cha-R-L-P-NH2],< 100
14,YXRLP (N-term Ac; residue 2 = allo-Ile; C-term NH2) [Ac-Y-(allo-I)-R-L-P-NH2],< 100
15,Ac-Y[Pen(Me)]RLP-NH2 [Ac-Y-Pen(Me)-R-L-P-NH2],< 100
16,B5,< 100
17,Pth-YIRLP-NH2 (reading uncertain; also: printed as Pth-Y-I-R-L-P-NH2) [Pth-Y-I-R-L-P-NH2],< 100
18,Isobutyl-YIRLA-NH2 [(iBu)Y-I-R-L-A-NH2],< 100
19,B6,< 100
20,B7,< 100
21,B8,< 100
22,B9,< 100
23,B10,< 100
24,B11,< 100
25,B12,< 100
26,B13,< 100
27,B14,< 100
28,"Ac-EYIRLPK-NH2 (also: cyclisation unknown (underlining lost), may be cyclic; underlining lost) [Ac-E-Y-I-R-L-P-K-NH2]",< 100
29,XIRLP (N-term Ac; N-(Me) on Y1; C-term NH2) [Ac-(Me)Y-I-R-L-P-NH2],< 100
30,B15,< 100
